Results published in patent US20240301049A1 (Ablynx, published 2024).

T1: cyno IL-6 (cynomolgus monkey, UniProt P79341 28-212, limits assumed)
T1 sequence (looked up): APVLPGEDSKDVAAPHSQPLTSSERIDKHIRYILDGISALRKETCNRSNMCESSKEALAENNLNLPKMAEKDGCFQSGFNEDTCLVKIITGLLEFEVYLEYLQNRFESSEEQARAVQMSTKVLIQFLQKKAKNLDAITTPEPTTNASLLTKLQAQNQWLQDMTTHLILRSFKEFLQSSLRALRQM

B1: F027200215 (bispecific antibody)
chain: EVQLVESGGGVVQPGGSLRLSCAASGIIFSINAMGWYRQAPGKQRELVADIFPFGSTEYADSVKGRFTISRDNAKNTVYLQMNSLRPEDTALYYCHSYDPRGDDYWGQGTLVTVSSGGGGSGGGSDVQLVESGGGVVQPGGSLRLSCAASGRTFSNYAMAWFRQAPGKEREFVAVISYAGGRTYYADSVKGRFTISRDNAKNTVYLQMNSLRPEDTALYYCAAVDSPLIATHPRGYDYWGQGTLVTVSSGGGGSGGGSEVQLVESGGGVVQPGGSLRLSCAASGFTFRSFGMSWVRQAPGKGPEWVSSISGSGSDTLYADSVKGRFTISRDNSKNTLYLQMNSLRPEDTALYYCTIGGSLSRSSQGTLVTVSSGGGGSGGGSEVQLVESGGGVVQPGGSLRLSCTASGFTFSTADMGWFRQAPGKGREFVARISGIDGTTYYDEPVKGRFTISRDNSKNTVYLQMNSLRPEDTALYYCRSPRYADQWSAYDYWGQGTLVKVSS
B2: F027201029 (bispecific antibody)
chain: EVQLVESGGGVVQPGGSLRLSCTASGFTFSTADMGWFRQAPGKGREFVARISGIDGTTYYDEPVKGRFTISRDNSKNTVYLQMNSLRPEDTALYYCRSPRYADQWSAYDYWGQGTLVKVSSGGGGSGGGSDVQLVESGGGVVQPGGSLRLSCAASGRTFSNYAMAWFRQAPGKEREFVAVISYAGGRTYYADSVKGRFTISRDNAKNTVYLQMNSLRPEDTALYYCAAVDSPLIATHPRGYDYWGQGTLVTVSSGGGGSGGGSEVQLVESGGGVVQPGGSLRLSCAASGFTFRSFGMSWVRQAPGKGPEWVSSISGSGSDTLYADSVKGRFTISRDNSKNTLYLQMNSLRPEDTALYYCTIGGSLSRSSQGTLVTVSSGGGGSGGGSEVQLVESGGGVVQPGGSLRLSCAASGIIFSINAMGWYRQAPGKQRELVADIFPFGSTEYADSVKGRFTISRDNAKNTVYLQMNSLRPEDTALYYCHSYDPRGDDYWGQGTLVTVSS
B3: F027200809 (bispecific antibody)
chain: EVQLVESGGGVVQPGGSLRLSCTASGFTFSTADMGWFRQAPGKGREFVARISGIDGTTYYDEPVKGRFTISRDNSKNTVYLQMNSLRPEDTALYYCRSPRYADQWSAYDYWGQGTLVKVSSGGGGSGGGSDVQLVESGGGVVQPGGSLRLSCAASGRTFSNYAMAWFRQAPGKEREFVAVISYAGGRTYYADSVKGRFTISRDNAKNTVYLQMNSLRPEDTALYYCAAVDSPLIATHPRGYDYWGQGTLVTVSSGGGGSGGGSEVQLVESGGGVVQPGGSLRLSCAASGFTFRSFGMSWVRQAPGKGPEWVSSISGSGSDTLYADSVKGRFTISRDNSKNTLYLQMNSLRPEDTALYYCTIGGSLSRSSQGTLVTVSSGGGGSGGGSEVQLVESGGGVVQPGGSLRLSCAASGFSLDYYGVGWFRQAPGKEREGVSCISSSEGDTYYADSVKGRFTISRDNAKNTVYLQMNSLRPEDTALYYCATDLSDYGVCSRWPSPYDYWGQGTLVKVSS
B4: F027200166 (bispecific antibody)
chain: EVQLVESGGGVVQPGGSLRLSCAASGIIFSINAMGWYRQAPGKQRELVADIFPFGSTEYADSVKGRFTISRDNAKNTVYLQMNSLRPEDTALYYCHSYDPRGDDYWGQGTLVTVSSGGGGSGGGSEVQLVESGGGVVQPGGSLRLSCAASGFTLAYYAIGWFRQAPGKEREGVSCISGSVGTTYYADSVKGRFTISRDNAKNTVYLQMNSLRPEDTALYYCVRSSWFDCGVQGRDLGNEYDYRGQGTLVTVSSGGGGSGGGSEVQLVESGGGVVQPGGSLRLSCAASGFTFRSFGMSWVRQAPGKGPEWVSSISGSGSDTLYADSVKGRFTISRDNSKNTLYLQMNSLRPEDTALYYCTIGGSLSRSSQGTLVTVSSGGGGSGGGSEVQLVESGGGVVQPGGSLRLSCTASGFTFSTADMGWFRQAPGKGREFVARISGIDGTTYYDEPVKGRFTISRDNSKNTVYLQMNSLRPEDTALYYCRSPRYADQWSAYDYWGQGTLVKVSS
B5: F027200929 (bispecific antibody)
chain: EVQLVESGGGVVQPGGSLRLSCAASGRTFSSYVMGWFRQAPGKEREFVSTINWAGSRGYYADSVKGRFTISRDNAKNTVYLQMNSLRPEDTALYYCAASAGGFLVPRVGQGYDYWGQGTLVTVSSGGGGSGGGSEVQLVESGGGVVQPGGSLRLSCAASGFTFRSFGMSWVRQAPGKGPEWVSSISGSGSDTLYADSVKGRFTISRDNSKNTLYLQMNSLRPEDTALYYCTIGGSLSRSSQGTLVTVSSGGGGSGGGSEVQLVESGGGVVQPGGSLRLSCAASGFSLDYYGVGWFRQAPGKEREGVSCISSSEGDTYYADSVKGRFTISRDNAKNTVYLQMNSLRPEDTALYYCATDLSDYGVCSRWPSPYDYWGQGTLVKVSSGGGGSGGGSEVQLVESGGGVVQPGGSLRLSCTASGFTFSTADMGWFRQAPGKGREFVARISGIDGTTYYDEPVKGRFTISRDNSKNTVYLQMNSLRPEDTALYYCRSPRYADQWSAYDYWGQGTLVKVSS
B6: F027200157 (bispecific antibody)
chain: EVQLVESGGGVVQPGGSLRLSCTASGFTFSTADMGWFRQAPGKGREFVARISGIDGTTYYDEPVKGRFTISRDNSKNTVYLQMNSLRPEDTALYYCRSPRYADQWSAYDYWGQGTLVKVSSGGGGSGGGSEVQLVESGGGVVQPGGSLRLSCAASGFTFRSFGMSWVRQAPGKGPEWVSSISGSGSDTLYADSVKGRFTISRDNSKNTLYLQMNSLRPEDTALYYCTIGGSLSRSSQGTLVTVSSGGGGSGGGSEVQLVESGGGVVQPGGSLRLSCAASGIIFSINAMGWYRQAPGKQRELVADIFPFGSTEYADSVKGRFTISRDNAKNTVYLQMNSLRPEDTALYYCHSYDPRGDDYWGQGTLVTVSSGGGGSGGGSEVQLVESGGGVVQPGGSLRLSCAASGFTLAYYAIGWFRQAPGKEREGVSCISGSVGTTYYADSVKGRFTISRDNAKNTVYLQMNSLRPEDTALYYCVRSSWFDCGVQGRDLGNEYDYRGQGTLVTVSS

target: T2, human IL-6 (human, UniProt P05231 30-212); assay: cell-based or functional assay

Binder | IC50 hIL-6 TF1 proliferation assay
B1 | 0.302 nM
B2 | 0.347 nM
B3 | 0.0682 nM
B4 | 2.25 nM
B5 | 0.0738 nM
B6 | 3.33 nM

target: T1, cyno IL-6; assay: cell-based or functional assay

Binder | Ratio IC50 cyno IL-6/hIL-6
B1 | 2 ratio
B2 | 0.6 ratio
B3 | 0.9 ratio
B4 | 10 ratio
B5 | 1 ratio
B6 | 7.1 ratio

target: T3, human TNF-α (human, UniProt P01375 77-233); assay: cell-based or functional assay
T3 sequence (P01375 77-233 limits assumed): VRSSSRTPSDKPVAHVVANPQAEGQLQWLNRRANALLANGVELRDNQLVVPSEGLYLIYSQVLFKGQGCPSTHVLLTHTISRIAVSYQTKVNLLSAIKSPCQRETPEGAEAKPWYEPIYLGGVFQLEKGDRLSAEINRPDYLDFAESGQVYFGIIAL

Binder | IC50 hTNF-α Nfkb assay
B1 | 0.239 nM
B2 | 0.0685 nM
B3 | 0.141 nM
B4 | 0.16 nM
B5 | 0.0858 nM
B6 | 0.124 nM

target: T4, cyno TNF-α (cynomolgus monkey, UniProt P79337 77-233); assay: cell-based or functional assay
T4 sequence (P79337 77-233 limits assumed): as the sequence (P01375 77-233 limits assumed) above, with L37V, R44T, T72N, R138L counted along it

Binder | Ratio IC50 cyno TNFα/hTNFα
B1 | 2.7 ratio
B2 | 2 ratio
B3 | 2.3 ratio
B4 | 3.3 ratio
B5 | 3.2 ratio
B6 | 4 ratio

target: T2, human IL-6; assay: cell-based or functional assay; remark: another data set of the same source

Binder | Ratio IC50 reference anti-IL-6 mAb1/Nb | hIL-6 TF1 proliferation assay (IC50, pM)
B2 | 5.3 ratio | 347 pM
B3 | 1.7 ratio | 68 pM

target: T1, cyno IL-6; assay: cell-based or functional assay; remark: another data set of the same source

Binder | cyno IL-6 TF1 proliferation assay (IC50, pM)
B2 | 209 pM
B3 | 61 pM

target: T3, human TNF-α; assay: cell-based or functional assay; remark: another data set of the same source

Binder | Ratio IC50 reference anti-TNF-α mAb/Nb | hTNF-α Nfkb assay (IC50, pM)
B2 | 0.83 ratio | 69 pM
B3 | 0.91 ratio | 141 pM

target: T4, cyno TNF-α; assay: cell-based or functional assay; remark: another data set of the same source

Binder | cyno TNF-α NFkb assay (IC50, pM)
B2 | 139 pM
B3 | 329 pM
